Data from the supplement of paper PMC9116672.
± gives the standard deviation of the averaged measurements or the uncertainty stated by the source.

Legend:
[1] = duplex formation entropy ΔS (Van't Hoff fit of HRM Tm); higher = smaller entropy loss on duplex formation; conditions: temperature for dG: 50 °C, NaCl: 500 mM (unadjusted)
Protocol: (§1)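 Duplex of the listed DNA strand with its complement, in 1x NNE buffer (500 mM NaCl, pH 7.0) with 1x EvaGreen. ΔH and ΔS come from a Van't Hoff linear fit of 1/Tm against ln(CT/4) over 1-20 uM, using HRM Tm values.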

[2] = duplex formation enthalpy ΔH (Van't Hoff fit of HRM Tm); higher = less exothermic duplex formation; conditions: temperature for dG: 50 °C, NaCl: 500 mM (unadjusted)
Protocol: as §1

[3] = duplex melting temperature (HRM, EvaGreen); higher = more stable duplex
Protocol: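 Listed DNA strand annealed 1:1 with its complementary strand (95 °C 5 min, 0.1 °C/s to 20 °C). Melted in 1x NNE buffer (500 mM NaCl, 10 mM Na2HPO4, 1 mM EDTA, pH 7.0) with 1x EvaGreen on a LightCycler96 (37 to 97 °C, 0.1 °C/s). Tm is the peak of -dF/dT at the stated total duplex concentration; 4 replicates are averaged. PS oligos are non-stereospecific (Rp/Sp mixtures).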

[4] = duplex formation free energy ΔG50 (Van't Hoff fit of HRM Tm); higher = less stable duplex; conditions: temperature for dG: 50 °C, NaCl: 500 mM (unadjusted)
Protocol: as §1

[5] = backbone: PO-PO (both strands phosphodiester DNA)
[6] = backbone: PS-PO (listed strand fully phosphorothioate, complement phosphodiester)
[7] = backbone: PS-PS (both strands fully phosphorothioate)
[8] = duplex concentration 1 µM, backbone: PS-PO (listed strand fully phosphorothioate, complement phosphodiester)
[9] = duplex concentration 1 µM, backbone: PS-PS (both strands fully phosphorothioate)
[10] = duplex concentration 2.5 µM, backbone: PO-PO (both strands phosphodiester DNA)
[11] = duplex concentration 2.5 µM, backbone: PS-PO (listed strand fully phosphorothioate, complement phosphodiester)
[12] = duplex concentration 2.5 µM, backbone: PS-PS (both strands fully phosphorothioate)
[13] = duplex concentration 5 µM, backbone: PO-PO (both strands phosphodiester DNA)
[14] = duplex concentration 5 µM, backbone: PS-PO (listed strand fully phosphorothioate, complement phosphodiester)
[15] = duplex concentration 5 µM, backbone: PS-PS (both strands fully phosphorothioate)
[16] = duplex concentration 7.5 µM, backbone: PO-PO (both strands phosphodiester DNA)
[17] = duplex concentration 7.5 µM, backbone: PS-PO (listed strand fully phosphorothioate, complement phosphodiester)
[18] = duplex concentration 7.5 µM, backbone: PS-PS (both strands fully phosphorothioate)
[19] = duplex concentration 10 µM, backbone: PO-PO (both strands phosphodiester DNA)
[20] = duplex concentration 10 µM, backbone: PS-PO (listed strand fully phosphorothioate, complement phosphodiester)
[21] = duplex concentration 10 µM, backbone: PS-PS (both strands fully phosphorothioate)
[22] = duplex concentration 15 µM, backbone: PO-PO (both strands phosphodiester DNA)
[23] = duplex concentration 15 µM, backbone: PS-PO (listed strand fully phosphorothioate, complement phosphodiester)
[24] = duplex concentration 15 µM, backbone: PS-PS (both strands fully phosphorothioate)
[25] = duplex concentration 20 µM, backbone: PO-PO (both strands phosphodiester DNA)
[26] = duplex concentration 20 µM, backbone: PS-PO (listed strand fully phosphorothioate, complement phosphodiester)
[27] = duplex concentration 20 µM, backbone: PS-PS (both strands fully phosphorothioate)
[28] = duplex concentration 1 µM, backbone: PO-PO (both strands phosphodiester DNA)

Row | Sequence | duplex formation entropy ΔS [1, 5] | duplex formation entropy ΔS [1, 6] | duplex formation entropy ΔS [1, 7] | duplex formation enthalpy ΔH [2, 5] | duplex formation enthalpy ΔH [2, 6] | duplex formation enthalpy ΔH [2, 7] | duplex melting temperature [3, 8] | duplex melting temperature [3, 9] | duplex melting temperature [3, 10] | duplex melting temperature [3, 11] | duplex melting temperature [3, 12] | duplex melting temperature [3, 13] | duplex melting temperature [3, 14] | duplex melting temperature [3, 15] | duplex melting temperature [3, 16] | duplex melting temperature [3, 17] | duplex melting temperature [3, 18] | duplex melting temperature [3, 19] | duplex melting temperature [3, 20] | duplex melting temperature [3, 21] | duplex melting temperature [3, 22] | duplex melting temperature [3, 23] | duplex melting temperature [3, 24] | duplex melting temperature [3, 25] | duplex melting temperature [3, 26] | duplex melting temperature [3, 27] | duplex formation free energy ΔG50 [4, 5] | duplex formation free energy ΔG50 [4, 6] | duplex formation free energy ΔG50 [4, 7] | duplex melting temperature [3, 28]
1 | CCCAGGCCTCGGATTTA | -206 ± 6.1 cal/mol/K | -191 ± 3.5 cal/mol/K | -205 ± 6.3 cal/mol/K | -80.8 ± 2.1 kcal/mol | -74.2 ± 1.2 kcal/mol | -77.5 ± 2.1 kcal/mol | 61.72 ± 0.53 °C | 56.81 ± 0.12 °C | 71.02 ± 0.086 °C | 64.52 ± 0.19 °C | 59.77 ± 0.087 °C | 73.09 ± 0.13 °C | 66.7 ± 0.3 °C | 61.69 ± 0.093 °C | 74.25 ± 0.19 °C | 67.99 ± 0.22 °C | 62.78 ± 0.14 °C | 75.215 ± 0.05 °C | 68.759 ± 0.049 °C | 63.54 ± 0.15 °C | 76.343 ± 0.055 °C | 70.047 ± 0.069 °C | 64.73 ± 0.092 °C | 77.12 ± 0.096 °C | 71.04 ± 0.25 °C | 65.39 ± 0.35 °C | -14.1 ± 0.15 kcal/mol | -12.37 ± 0.061 kcal/mol | -11.41 ± 0.078 kcal/mol | –
2 | CCGCTCAGAGTAGAGA | -187 ± 3.2 cal/mol/K | -193 ± 3.2 cal/mol/K | -183 ± 8 cal/mol/K | -72.8 ± 1.1 kcal/mol | -73.5 ± 1.1 kcal/mol | -68.9 ± 2.6 kcal/mol | 56.777 ± 0.05 °C | 49.2 ± 0.5 °C | 65.47 ± 0.19 °C | 59.67 ± 0.14 °C | 52.58 ± 0.28 °C | 67.54 ± 0.15 °C | 61.84 ± 0.13 °C | 54.81 ± 0.14 °C | 68.92 ± 0.084 °C | 63.04 ± 0.11 °C | 55.91 ± 0.17 °C | 69.87 ± 0.13 °C | 63.88 ± 0.14 °C | 56.68 ± 0.077 °C | 71.25 ± 0.081 °C | 65.05 ± 0.1 °C | 57.72 ± 0.067 °C | 72.15 ± 0.098 °C | 65.94 ± 0.14 °C | 58.67 ± 0.3 °C | -12.5 ± 0.059 kcal/mol | -11.31 ± 0.042 kcal/mol | -9.673 ± 0.048 kcal/mol | 62.75 ± 0.41 °C
3 | CCGTTGCTGCTAGG | -172 ± 13 cal/mol/K | -180 ± 23 cal/mol/K | -97.4 ± 7.7 cal/mol/K | -67.8 ± 4.5 kcal/mol | -69.4 ± 7.8 kcal/mol | -40.7 ± 2.5 kcal/mol | – | 45.8 ± 0.71 °C | 65.75 ± 0.21 °C | 59.6 °C | 49.3 ± 1.4 °C | 68 ± 0.31 °C | 61.1 ± 1 °C | 53.433 ± 0.0017 °C | 69.13 ± 0.18 °C | 63.1 ± 0.69 °C | 56 °C | 70.55 ± 0.22 °C | 63.92 ± 0.4 °C | 57.4 °C | 71.88 ± 0.22 °C | 65.35 ± 0.083 °C | 60.5 °C | 72.82 ± 0.098 °C | 65.77 ± 0.2 °C | 61.75 ± 0.28 °C | -12.3 ± 0.25 kcal/mol | -11.1 ± 0.33 kcal/mol | -9.23 ± 0.051 kcal/mol | –
4 | CGACATGTATGGCACAG | -198 ± 5.8 cal/mol/K | -224 ± 3.8 cal/mol/K | -214 ± 8.2 cal/mol/K | -77.2 ± 2 kcal/mol | -84.2 ± 1.3 kcal/mol | -79.1 ± 2.7 kcal/mol | 58.38 ± 0.3 °C | 50.2 ± 0.26 °C | 67.76 ± 0.17 °C | 60.82 ± 0.11 °C | 53.07 ± 0.18 °C | 69.89 ± 0.28 °C | 62.71 ± 0.088 °C | 55.02 ± 0.11 °C | 70.97 ± 0.12 °C | 63.78 ± 0.073 °C | 56.02 ± 0.081 °C | 71.86 ± 0.14 °C | 64.547 ± 0.024 °C | 56.75 ± 0.13 °C | 73.04 ± 0.17 °C | 65.56 ± 0.091 °C | 57.63 ± 0.092 °C | 73.85 ± 0.16 °C | 66.343 ± 0.048 °C | 58.35 ± 0.083 °C | -13.17 ± 0.12 kcal/mol | -11.9 ± 0.052 kcal/mol | -9.881 ± 0.049 kcal/mol | 64.55 ± 0.5 °C
5 | CGATTTTGTCAAGCCT | – | -197 ± 8.1 cal/mol/K | -179 ± 5.5 cal/mol/K | – | -74 ± 2.7 kcal/mol | -66.5 ± 1.8 kcal/mol | 52.6 °C | 45 ± 0.64 °C | 64.84 ± 0.3 °C | 55.56 ± 0.073 °C | 48.27 ± 0.26 °C | 66.53 ± 0.27 °C | 57.82 ± 0.17 °C | 50.1 ± 0.15 °C | 67.75 ± 0.37 °C | 58.86 ± 0.14 °C | 51.53 ± 0.24 °C | 68.64 ± 0.33 °C | 59.74 ± 0.12 °C | 52.43 ± 0.088 °C | 70.02 ± 0.072 °C | 60.94 ± 0.033 °C | 53.55 ± 0.096 °C | 70.68 ± 0.17 °C | 61.81 ± 0.11 °C | 54.55 ± 0.15 °C | – | -10.45 ± 0.08 kcal/mol | -8.766 ± 0.018 kcal/mol | 64.1 °C
6 | CGCGCGAGTATTTATAACCT | -372 ± 29 cal/mol/K | -290 ± 12 cal/mol/K | -234 ± 19 cal/mol/K | -138 ± 10 kcal/mol | -107 ± 4 kcal/mol | -86 ± 6.3 kcal/mol | – | 52.47 ± 0.24 °C | 72.26 ± 0.47 °C | 64.1 ± 0.75 °C | 55.09 ± 0.4 °C | 73.44 ± 0.43 °C | 65.57 ± 0.61 °C | 56.95 ± 0.38 °C | 74.53 ± 0.18 °C | 66.38 ± 0.52 °C | 57.68 ± 0.13 °C | 75.09 ± 0.087 °C | 67.07 ± 0.32 °C | 58.33 ± 0.069 °C | 75.71 ± 0.17 °C | 67.9 ± 0.21 °C | – | – | 68.39 ± 0.14 °C | – | -18.2 ± 0.69 kcal/mol | -13.7 ± 0.2 kcal/mol | -10.5 ± 0.12 kcal/mol | 71.21 ± 0.27 °C
7 | CGGGATTTCTGGCATCATTGTCCT | -332 ± 20 cal/mol/K | -384 ± 18 cal/mol/K | -294 ± 11 cal/mol/K | -126 ± 7 kcal/mol | -141 ± 6.2 kcal/mol | -108 ± 3.9 kcal/mol | 67.9 ± 0.64 °C | 59.9 ± 0.76 °C | 77.25 ± 0.45 °C | 69.22 ± 0.5 °C | 61.87 ± 0.59 °C | 78.194 ± 0.017 °C | 70.21 ± 0.48 °C | 63.36 ± 0.43 °C | 79.16 ± 0.14 °C | 70.82 ± 0.46 °C | 64.38 ± 0.25 °C | 79.99 ± 0.12 °C | 71.58 ± 0.27 °C | 65.03 ± 0.12 °C | 80.96 ± 0.077 °C | 72.42 ± 0.15 °C | 65.67 ± 0.24 °C | 81.6 ± 0.082 °C | 72.86 ± 0.12 °C | 66.1 ± 0.11 °C | -19 ± 0.58 kcal/mol | -17.1 ± 0.38 kcal/mol | -13 ± 0.16 kcal/mol | 76 ± 0.48 °C
8 | CGGTGCTTTTGGTAGC | -204 ± 15 cal/mol/K | -200 ± 4.7 cal/mol/K | -184 ± 7.3 cal/mol/K | -78.9 ± 5 kcal/mol | -75.7 ± 1.6 kcal/mol | -69.1 ± 2.4 kcal/mol | 55.5 °C | 48.49 ± 0.47 °C | 66.24 ± 0.63 °C | 57.98 ± 0.26 °C | 51.59 ± 0.36 °C | 68.2 ± 0.57 °C | 60.12 ± 0.16 °C | 53.89 ± 0.15 °C | 69.42 ± 0.55 °C | 61.35 ± 0.16 °C | 55.11 ± 0.14 °C | 70.49 ± 0.27 °C | 62.11 ± 0.17 °C | 55.86 ± 0.081 °C | 71.77 ± 0.14 °C | 63.256 ± 0.027 °C | 56.93 ± 0.08 °C | 72.89 ± 0.21 °C | 64.025 ± 0.015 °C | 57.7 ± 0.2 °C | -13 ± 0.28 kcal/mol | -11.01 ± 0.054 kcal/mol | -9.497 ± 0.038 kcal/mol | 64.53 ± 0.35 °C
9 | CGTGCAGCACTACTTG | -181 ± 7.5 cal/mol/K | -186 ± 5 cal/mol/K | -179 ± 11 cal/mol/K | -71.3 ± 2.6 kcal/mol | -71.3 ± 1.7 kcal/mol | -67.6 ± 3.5 kcal/mol | 56.81 ± 0.29 °C | 50.09 ± 0.18 °C | 67.58 ± 0.38 °C | 60.02 ± 0.13 °C | 53.82 ± 0.069 °C | 69.83 ± 0.28 °C | 62.35 ± 0.23 °C | 56.17 ± 0.085 °C | 71.17 ± 0.15 °C | 63.49 ± 0.13 °C | 57.1 ± 0.12 °C | 72.2 ± 0.18 °C | 64.33 ± 0.093 °C | 57.92 ± 0.08 °C | 73.4 ± 0.13 °C | 65.6 ± 0.099 °C | 59.07 ± 0.11 °C | 74.39 ± 0.17 °C | 66.47 ± 0.25 °C | 59.74 ± 0.13 °C | -12.8 ± 0.17 kcal/mol | -11.31 ± 0.067 kcal/mol | -9.892 ± 0.075 kcal/mol | –
